The numbers were not newly measured in paper PMC13615496, which cites them from elsewhere.

The data set addresses PYL (Arabidopsis thaliana) (UniProt Q8VZS8).
UniProt Q8VZS8, sequence (Q8VZS8 2-221): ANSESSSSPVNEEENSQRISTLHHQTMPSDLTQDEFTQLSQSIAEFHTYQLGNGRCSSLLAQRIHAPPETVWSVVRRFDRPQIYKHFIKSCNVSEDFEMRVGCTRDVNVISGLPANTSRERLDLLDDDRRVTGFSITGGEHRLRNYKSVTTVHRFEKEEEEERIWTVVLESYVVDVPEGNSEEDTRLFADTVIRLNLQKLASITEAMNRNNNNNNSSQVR

On to ABI (from UniProt P49597), for which the Kd is 52 µM.

As usually defined, the Kd is a measure of binding affinity in units of concentration.
